Reference: patent US20110124006A1, “METHOD FOR SCREENING OF THERAPEUTIC AGENT FOR CANCER” (Hismitsu Pharmaceutical Co., Inc., priority 2008, published 2011)

Experiments:
[1] = test system: SK-N-BE cells, NLF cells, SH-SY5Y cells, SMS-SAN cells; experiment: MTT assay, EGF-induced proliferation of neuroblastoma-derived cells; assay type: cell-based; settings: SK-N-BE, NLF, SH-SY5Y, SMS-SAN cells, 10 ng/ml EGF
Description: SK-N-BE cells, NLF cells, SH-SY5Y cells, SMS-SAN cells, which are cell lines derived from neuroblastoma, and SK-N-BE cells into which siRNA against NLRR1 was introduced were cultured in the presence and absence of 10 ng/ml EGF, and the cell proliferation was quantified by the MTT assay over time. FIG. 28 is a graph showing the cell proliferation, showing the change fold ratio of the proliferation of cells in the presence of EGF to the proliferation of cells in the absence of EGF.

MYCN expression = experiment: Immunoblot of MYCN expression in SK-N-BE cells treated with EGF; assay type: cell-based
Description: A neuroblastoma cell line SK-N-BE was cultured for 10 hours in media containing EGF at a variety of concentrations, by using an anti-phosphorylated EGFR antibody, an anti-EGFR antibody, an anti-MYCN antibody and an anti-actin antibody, the phosphorylation of an EGF receptor and the expression of MYCN were analyzed by an immunoblot method. FIG. 19 is a photograph showing a result of immunoblot. […] FIG. 20 is a photograph in which SK-N-BE cells were cultured in a medium containing 10 ng/ml EGF for different periods of time and the expression of MYCN was analyzed by an immunoblot method using an anti-MYCN antibody and an anti-actin antibody. […] From the above-mentioned results, it is thought that the following positive feed-back mechanism is present. That is to say, by EGF treatment, an EGFR signal is activated and the expression of MYCN is promoted. Next, by MYCN, transcription of NLRR1 is promoted. Next, the expression of NLRR1 is increased and activated. Next, by NLRR1, an EGFR signal is activated. Next, the expression of MYCN is further promoted.

B1: epidermal growth factor (protein, UniProt P01133 23-1207, looked up)
Pro-epidermal growth factor: PQHWSCPEGTLAGNGNSTCVGPAPFLIFSHGNSIFRIDTEGTNYEQLVVDAGVSVIMDFHYNEKRIYWVDLERQLLQRVFLNGSRQERVCNIEKNVSGMAINWINEEVIWSNQQEGIITVTDMKGNNSHILLSALKYPANVAVDPVERFIFWSSEVAGSLYRADLDGVGVKALLETSEKITAVSLDVLDKRLFWIQYNREGSNSLICSCDYDGGSVHISKHPTQHNLFAMSLFGDRIFYSTWKMKTIWIANKHTGKDMVRINLHSSFVPLGELKVVHPLAQPKAEDDTWEPEQKLCKLRKGNCSSTVCGQDLQSHLCMCAEGYALSRDRKYCEDVNECAFWNHGCTLGCKNTPGSYYCTCPVGFVLLPDGKRCHQLVSCPRNVSECSHDCVLTSEGPLCFCPEGSVLERDGKTCSGCSSPDNGGCSQLCVPLSPVSWECDCFPGYDLQLDEKSCAASGPQPFLLFANSQDIRHMHFDGTDYGTLLSQQMGMVYALDHDPVENKIYFAHTALKWIERANMDGSQRERLIEEGVDVPEGLAVDWIGRRFYWTDRGKSLIGRSDLNGKRSKIITKENISQPRGIAVHPMAKRLFWTDTGINPRIESSSLQGLGRLVIASSDLIWPSGITIDFLTDKLYWCDAKQSVIEMANLDGSKRRRLTQNDVGHPFAVAVFEDYVWFSDWAMPSVMRVNKRTGKDRVRLQGSMLKPSSLVVVHPLAKPGADPCLYQNGGCEHICKKRLGTAWCSCREGFMKASDGKTCLALDGHQLLAGGEVDLKNQVTPLDILSKTRVSEDNITESQHMLVAEIMVSDQDDCAPVGCSMYARCISEGEDATCQCLKGFAGDGKLCSDIDECEMGVPVCPPASSKCINTEGGYVCRCSEGYQGDGIHCLDIDECQLGEHSCGENASCTNTEGGYTCMCAGRLSEPGLICPDSTPPPHLREDDHHYSVRNSDSECPLSHDGYCLHDGVCMYIEALDKYACNCVVGYIGERCQYRDLKWWELRHAGHGQQQKVIVVAVCVVVLVMLLLLSLWGAHYYRTQKLLSKNPKNPYEESSRDVRSRRPADTEDGMSSCPQPWFVVIKEHQDLKNGGQPVAGEDGQAADGSMQPTSWRQEPQLCGMGTEQGCWIPVSSDKGSCPQVMERSFHMPSYGTQTLEGGVEKPHSLLSANPLWQQRALDPPHQMELTQ
modifications: Pro-epidermal growth factor
notes: epidermal growth factor, purchased from Sigma
proliferation of cells (MTT assay, fold ratio with vs without EGF) [1]: the proliferation of cells derived from neuroblastoma is promoted
expression of MYCN (immunoblot), time course (MYCN expression; 10 ng/ml EGF, different periods of time): Increased expression of MYCN by EGF over time
expression of MYCN (immunoblot), EGF concentration dependence (MYCN expression; 10 hours, EGF at a variety of concentrations): the expression of MYCN is increased depending upon the concentration of EGF
